The text below walks through data of patent US20260185137A1 (University of Texas, published 2026).

Positions count from the first letter of the chain named. Numbers in names are those of the source.

The Kd is the free concentration of one partner at which half of the binding sites on the other are occupied at equilibrium, for simple one-to-one binding. Low readings indicate tighter binding, high ones weaker binding.

Series [1] concerns the molecule itself. The experiment in a line: 15N-TROSY HSQC NMR (self-association of the RING domain); sample concentration is not printed on the sheet. The procedure: NMR spectroscopy. All NMR experiments were performed in 50 mM Sodium Phosphate (pH 7.5), 150 mM NaCl, 1 mM TCEP, 10% (v/v) D₂O, 0.04% (w/v) NaN₃, and the data collected at 298K on a Bruker Avance 700-MHz spectrometer equipped with a cryoprobe. Backbone assignments were carried out using standard TROSY triple resonance NMR experiments (HNCO, HN(CA)CO, HN(CO)CA, HNCA, HNCACB, and HN(CO)CACB). Protein concentrations for each experiment are shown in the corresponding figures or noted in figure legends. The NMR data were processed using NMRPipe and spectra evaluated using NMRFAM-Sparky.

Series [2] deals with the molecule itself. The experiment in a line: sedimentation equilibrium analytical ultracentrifugation, monomer-dimer self-association model.
Description: Analytical Ultracentrifugation. Sedimentation velocity experiments were performed with a Beckman Optima XL-I analytical ultracentrifuge (Beckman Coulter, Indianapolis, IN) equipped with a 4-hole AnTi-60 rotor and 2-channel centerpiece cells. Samples were in a buffer containing 50 mM Tris (pH 7.5), 150 mM NaCl, and 1 mM TCEP. Sedimentation velocity experiments were carried out at 20° C. and data collection performed in the intensity mode at 280 nm. […] All c(S) distributions were calculated with fitted frictional ratios (f/f₀) and meniscus positions were all fitted with a maximum entropy regularization cutoff of 0.95. Sedimentation equilibrium experiments were carried out using six-channel centerpieces, each chamber containing 110 μL samples. Equilibrium experiments were conducted at 20° C. and collection of data performed in the intensity mode at 280 nm and 230 nm. […] Equilibrium distributions were fitted to a monomer-dimer self-association model.

B1: R1-I77R, RING domain construct of rhesus monkey TRIM5alpha with the I77R mutation (enzyme, UniProt Q0PF16 2-90, looked up)
chain: ASGILLNVKEEVTCPICLELLTEPLSLHCGHSFCQACITANHKKSMLYKEGERSCPVCRISYQPENIQPNRHVANRVEKLREVKLSPEE
notes: range 2-90; Tags were removed by TEV protease
As to B1, in series [1], the binding result is “no binding”.

B2: R1-WT, monomeric RING domain construct of rhesus monkey TRIM5alpha (enzyme, UniProt Q0PF16 2-90, looked up)
chain: B1 chain with R76I
notes: range 2-90; Expressed with N-terminal 6His-GB1-TEV tags that were removed by TEV protease; also called isolated RING monomer
For B2, the Kd in series [2] is roughly 60 µM.
